Assay results from US20170355766A1 (Xencor, published 2017).
Positions count from the first letter of the chain named. Numbers in names are those of the source.

Biological target: T1, human FcγRIIb receptor protein (R&D Systems) (human, UniProt P31994 46-217)
T1 construct: Analyte injected over antibodies captured on a protein A/G chip (Biacore); also called CD32b
T1 sequence (looked up): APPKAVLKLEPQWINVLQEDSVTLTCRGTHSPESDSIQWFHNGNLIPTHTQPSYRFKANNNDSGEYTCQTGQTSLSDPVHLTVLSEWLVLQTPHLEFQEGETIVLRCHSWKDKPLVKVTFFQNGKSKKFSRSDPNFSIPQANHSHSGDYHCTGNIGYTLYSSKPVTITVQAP
Test: SPR (Biacore)
Description: Variants were screened for receptor affinity using Biacore™ technology, also referred to as Biacore herein, a surface plasmon resonance (SPR) based technology for studying biomolecular interactions in real time. SPR measurements were performed using a Biacore 3000 instrument (Biacore, Piscataway, N.J.). A protein A/G (Pierce Biotechnology) CM5 biosensor chip (Biacore) was generated using a standard primary amine coupling protocol. All measurements were performed using HBS-EP buffer (10 mM HEPES pH 7.4, 0.15 M NaCl, 3 mM EDTA, 0.005% vol/vol surfactant P20, Biacore). Antibodies at 20 nM or 50 nM in HBS-EP buffer were immobilized on the protein A/G surface and FcγRs were injected. After each cycle, the surface was regenerated by injecting glycine buffer (10 mM, pH 1.5). Data were processed by zeroing time and response before the injection of FcγR and by subtracting appropriate nonspecific signals (response of reference channel and injection of running buffer). Kinetic analyses were performed by global fitting of binding data with a 1:1 Langmuir binding model using BIAevaluation software (Biacore).

B1: L234E/H268D (antibody, human IgG1, kappa)
heavy: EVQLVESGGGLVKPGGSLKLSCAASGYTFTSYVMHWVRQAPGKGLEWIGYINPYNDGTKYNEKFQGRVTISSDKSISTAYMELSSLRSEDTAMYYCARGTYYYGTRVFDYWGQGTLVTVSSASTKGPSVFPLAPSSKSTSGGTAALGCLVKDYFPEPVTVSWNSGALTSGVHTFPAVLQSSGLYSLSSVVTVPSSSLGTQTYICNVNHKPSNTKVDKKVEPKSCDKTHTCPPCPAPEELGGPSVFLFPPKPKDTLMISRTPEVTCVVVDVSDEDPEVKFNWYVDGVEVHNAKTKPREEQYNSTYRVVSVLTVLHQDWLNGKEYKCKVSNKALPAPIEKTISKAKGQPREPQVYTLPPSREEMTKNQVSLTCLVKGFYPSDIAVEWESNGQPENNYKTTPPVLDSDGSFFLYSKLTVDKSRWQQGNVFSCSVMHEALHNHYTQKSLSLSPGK
light: DIVMTQSPATLSLSPGERATLSCRSSKSLQNVNGNTYLYWFQQKPGQSPQLLIYRMSNLNSGVPDRFSGSGSGTEFTLTISSLEPEDFAVYYCMQHLEYPITFGAGTKLEIKRTVAAPSVFIFPPSDEQLKSGTASVVCLLNNFYPREAKVQWKVDNALQSGNSQESVTEQDSKDSTYSLSSTLTLSKADYEKHKVYACEVTHQGLSSPVTKSFNRGEC
notes: HuAM4G7 IgG1 Fc variant
  Fold FcγRIIb: 5.89 fold

B2: L235D/S239D (antibody, human IgG1, kappa)
heavy: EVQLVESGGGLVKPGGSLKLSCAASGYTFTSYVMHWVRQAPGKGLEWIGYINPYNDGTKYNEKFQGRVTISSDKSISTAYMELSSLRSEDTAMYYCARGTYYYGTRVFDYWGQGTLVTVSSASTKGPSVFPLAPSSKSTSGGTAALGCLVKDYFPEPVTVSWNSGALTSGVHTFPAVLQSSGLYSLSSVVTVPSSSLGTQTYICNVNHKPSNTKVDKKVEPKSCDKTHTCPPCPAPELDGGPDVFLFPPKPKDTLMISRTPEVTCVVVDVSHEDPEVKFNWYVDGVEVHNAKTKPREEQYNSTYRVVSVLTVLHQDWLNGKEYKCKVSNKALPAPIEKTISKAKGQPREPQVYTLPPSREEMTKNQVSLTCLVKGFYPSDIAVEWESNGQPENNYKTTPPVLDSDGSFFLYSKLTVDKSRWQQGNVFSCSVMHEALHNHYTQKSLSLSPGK
light: B1 light
notes: HuAM4G7 IgG1 Fc variant
  Fold FcγRIIb: 4.11 fold

B3: L235F/H268D/L328Y (antibody, human IgG1, kappa)
heavy: EVQLVESGGGLVKPGGSLKLSCAASGYTFTSYVMHWVRQAPGKGLEWIGYINPYNDGTKYNEKFQGRVTISSDKSISTAYMELSSLRSEDTAMYYCARGTYYYGTRVFDYWGQGTLVTVSSASTKGPSVFPLAPSSKSTSGGTAALGCLVKDYFPEPVTVSWNSGALTSGVHTFPAVLQSSGLYSLSSVVTVPSSSLGTQTYICNVNHKPSNTKVDKKVEPKSCDKTHTCPPCPAPELFGGPSVFLFPPKPKDTLMISRTPEVTCVVVDVSDEDPEVKFNWYVDGVEVHNAKTKPREEQYNSTYRVVSVLTVLHQDWLNGKEYKCKVSNKAYPAPIEKTISKAKGQPREPQVYTLPPSREEMTKNQVSLTCLVKGFYPSDIAVEWESNGQPENNYKTTPPVLDSDGSFFLYSKLTVDKSRWQQGNVFSCSVMHEALHNHYTQKSLSLSPGK
light: B1 light
notes: HuAM4G7 IgG1 Fc variant
  Fold FcγRIIb: 3.97 fold

B4: L328E (antibody, human IgG1, kappa)
heavy: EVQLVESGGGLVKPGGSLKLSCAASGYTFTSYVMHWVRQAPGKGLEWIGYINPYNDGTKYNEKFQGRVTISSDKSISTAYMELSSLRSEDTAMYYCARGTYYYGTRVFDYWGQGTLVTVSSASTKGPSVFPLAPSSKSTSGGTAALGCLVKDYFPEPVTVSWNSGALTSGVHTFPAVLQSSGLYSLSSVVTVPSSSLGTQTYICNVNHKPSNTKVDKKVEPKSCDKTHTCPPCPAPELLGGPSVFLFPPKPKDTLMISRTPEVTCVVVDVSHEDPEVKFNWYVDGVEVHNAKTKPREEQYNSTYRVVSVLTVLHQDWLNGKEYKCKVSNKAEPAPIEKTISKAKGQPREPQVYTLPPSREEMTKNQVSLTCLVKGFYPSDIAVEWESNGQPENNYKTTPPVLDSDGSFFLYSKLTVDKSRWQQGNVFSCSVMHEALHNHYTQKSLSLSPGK
light: B1 light
notes: HuAM4G7 IgG1 Fc variant
  binding result: no binding

B5: L235F/S239D/L328Y (antibody, human IgG1, kappa)
heavy: B3 heavy with S243D, D272H
light: B1 light
notes: HuAM4G7 IgG1 Fc variant
  Fold FcγRIIb: 6.82 fold

B6: S239D/H268D/L328F (antibody, human IgG1, kappa)
heavy: B3 heavy with F239L, S243D, Y332F
light: B1 light
notes: HuAM4G7 IgG1 Fc variant
  Fold FcγRIIb: 8.79 fold

B7: L235F/L328Y/I332E (antibody, human IgG1, kappa)
heavy: B3 heavy with D272H, I336E
light: B1 light
notes: HuAM4G7 IgG1 Fc variant
  Fold FcγRIIb: 3.31 fold

B8: P331S (antibody, human IgG1, kappa)
heavy: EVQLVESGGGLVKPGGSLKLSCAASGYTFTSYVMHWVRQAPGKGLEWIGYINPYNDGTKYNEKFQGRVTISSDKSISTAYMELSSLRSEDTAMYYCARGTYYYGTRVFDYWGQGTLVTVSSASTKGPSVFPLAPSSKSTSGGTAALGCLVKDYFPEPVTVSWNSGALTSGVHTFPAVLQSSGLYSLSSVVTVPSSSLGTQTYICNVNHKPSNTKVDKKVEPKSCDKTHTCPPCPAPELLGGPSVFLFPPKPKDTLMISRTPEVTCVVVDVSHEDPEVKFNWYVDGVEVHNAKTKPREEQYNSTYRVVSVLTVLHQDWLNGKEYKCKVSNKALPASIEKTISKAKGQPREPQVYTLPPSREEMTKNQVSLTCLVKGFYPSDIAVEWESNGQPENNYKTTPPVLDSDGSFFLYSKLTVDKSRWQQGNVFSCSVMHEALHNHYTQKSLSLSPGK
light: B1 light
notes: HuAM4G7 IgG1 Fc variant
  Fold FcγRIIb: 0.0372 fold

B9: S239D/L328F/I332E (antibody, human IgG1, kappa)
heavy: B3 heavy with F239L, S243D, D272H, Y332F, I336E
light: B1 light
notes: HuAM4G7 IgG1 Fc variant
  Fold FcγRIIb: 8.34 fold

B10: S239D/L328Y/I332E (antibody, human IgG1, kappa)
heavy: B3 heavy with F239L, S243D, D272H, I336E
light: B1 light
notes: HuAM4G7 IgG1 Fc variant
  Fold FcγRIIb: 7.41 fold

B11: L328Y/I332E (antibody, human IgG1, kappa)
heavy: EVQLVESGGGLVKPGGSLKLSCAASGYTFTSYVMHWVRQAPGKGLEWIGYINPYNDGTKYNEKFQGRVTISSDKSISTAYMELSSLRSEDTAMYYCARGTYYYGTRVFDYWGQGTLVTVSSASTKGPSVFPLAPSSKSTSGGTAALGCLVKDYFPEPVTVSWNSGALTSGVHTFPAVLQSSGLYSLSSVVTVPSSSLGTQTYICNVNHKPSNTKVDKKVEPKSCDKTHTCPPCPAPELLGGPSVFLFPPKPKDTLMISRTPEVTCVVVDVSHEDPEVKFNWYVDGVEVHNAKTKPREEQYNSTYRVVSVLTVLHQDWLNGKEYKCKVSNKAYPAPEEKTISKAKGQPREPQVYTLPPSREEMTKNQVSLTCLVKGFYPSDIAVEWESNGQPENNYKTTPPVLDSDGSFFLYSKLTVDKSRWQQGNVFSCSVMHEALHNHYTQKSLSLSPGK
light: B1 light
notes: HuAM4G7 IgG1 Fc variant
  Fold FcγRIIb: 2.08 fold

B12: L235W (antibody, human IgG1, kappa)
heavy: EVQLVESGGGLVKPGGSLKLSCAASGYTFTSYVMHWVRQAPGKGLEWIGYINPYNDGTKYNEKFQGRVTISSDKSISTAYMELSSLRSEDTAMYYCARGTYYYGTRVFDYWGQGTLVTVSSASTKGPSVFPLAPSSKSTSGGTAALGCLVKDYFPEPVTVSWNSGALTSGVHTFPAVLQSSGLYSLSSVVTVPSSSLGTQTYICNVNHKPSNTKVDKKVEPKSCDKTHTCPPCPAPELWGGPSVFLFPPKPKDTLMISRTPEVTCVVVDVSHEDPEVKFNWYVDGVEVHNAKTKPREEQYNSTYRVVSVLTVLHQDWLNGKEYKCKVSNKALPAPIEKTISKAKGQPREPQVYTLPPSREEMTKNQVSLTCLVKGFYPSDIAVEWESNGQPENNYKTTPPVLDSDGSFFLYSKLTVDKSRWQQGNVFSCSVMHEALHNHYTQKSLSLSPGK
light: B1 light
notes: HuAM4G7 IgG1 Fc variant
  binding result: no binding

B13: L234W/S239D/L328Y (antibody, human IgG1, kappa)
heavy: B3 heavy with L238W, F239L, S243D, D272H
light: B1 light
notes: HuAM4G7 IgG1 Fc variant
  Fold FcγRIIb: 32.8 fold

B14: L234W/H268D/L328Y (antibody, human IgG1, kappa)
heavy: B3 heavy with L238W, F239L
light: B1 light
notes: HuAM4G7 IgG1 Fc variant
  Fold FcγRIIb: 5.92 fold

B15: S239D/L328Y (antibody, human IgG1, kappa)
heavy: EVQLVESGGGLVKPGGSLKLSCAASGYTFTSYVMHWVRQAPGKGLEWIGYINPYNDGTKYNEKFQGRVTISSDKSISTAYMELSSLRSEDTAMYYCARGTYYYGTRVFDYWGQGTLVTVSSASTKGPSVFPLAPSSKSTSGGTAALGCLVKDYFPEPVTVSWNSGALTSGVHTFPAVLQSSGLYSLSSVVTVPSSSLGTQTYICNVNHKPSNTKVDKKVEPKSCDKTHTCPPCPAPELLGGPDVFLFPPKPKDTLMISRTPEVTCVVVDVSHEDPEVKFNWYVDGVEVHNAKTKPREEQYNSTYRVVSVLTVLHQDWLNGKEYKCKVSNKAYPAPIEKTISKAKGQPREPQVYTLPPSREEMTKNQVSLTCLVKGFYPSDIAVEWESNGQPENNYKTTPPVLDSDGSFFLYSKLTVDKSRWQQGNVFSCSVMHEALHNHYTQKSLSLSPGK
light: B1 light
notes: HuAM4G7 IgG1 Fc variant
  Fold FcγRIIb: 5.56 fold

B16: L234W/L328Y/I332E (antibody, human IgG1, kappa)
heavy: B3 heavy with L238W, F239L, D272H, I336E
light: B1 light
notes: HuAM4G7 IgG1 Fc variant
  Fold FcγRIIb: 6.32 fold

B17: S239D/S267A/L328Y (antibody, human IgG1, kappa)
heavy: B3 heavy with F239L, S243D, S271A, D272H
light: B1 light
notes: HuAM4G7 IgG1 Fc variant
  Fold FcγRIIb: 19.8 fold

B18: S239D/H268D/L328W (antibody, human IgG1, kappa)
heavy: B3 heavy with F239L, S243D, Y332W
light: B1 light
notes: HuAM4G7 IgG1 Fc variant
  Fold FcγRIIb: 51.1 fold

B19: S239D/A327D/L328Y (antibody, human IgG1, kappa)
heavy: B3 heavy with F239L, S243D, D272H, A331D
light: B1 light
notes: HuAM4G7 IgG1 Fc variant
  Fold FcγRIIb: 11.9 fold

B20: S239D/H268D (antibody, human IgG1, kappa)
heavy: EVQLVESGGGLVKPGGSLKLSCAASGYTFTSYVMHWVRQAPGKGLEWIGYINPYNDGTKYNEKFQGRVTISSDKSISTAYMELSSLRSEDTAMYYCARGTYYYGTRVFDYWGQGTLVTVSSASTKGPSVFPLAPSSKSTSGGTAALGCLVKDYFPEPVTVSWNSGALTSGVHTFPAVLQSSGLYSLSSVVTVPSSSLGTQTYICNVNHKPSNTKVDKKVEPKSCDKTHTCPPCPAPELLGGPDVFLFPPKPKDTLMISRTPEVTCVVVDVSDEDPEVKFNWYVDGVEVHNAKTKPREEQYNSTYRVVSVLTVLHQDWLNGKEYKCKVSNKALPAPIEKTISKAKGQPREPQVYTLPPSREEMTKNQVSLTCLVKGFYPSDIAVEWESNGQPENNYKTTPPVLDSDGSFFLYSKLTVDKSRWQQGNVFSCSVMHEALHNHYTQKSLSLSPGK
light: B1 light
notes: HuAM4G7 IgG1 Fc variant
  Fold FcγRIIb: 14.4 fold

B21: S239D/H268E/L328Y (antibody, human IgG1, kappa)
heavy: B3 heavy with F239L, S243D, D272E
light: B1 light
notes: HuAM4G7 IgG1 Fc variant
  Fold FcγRIIb: 21.7 fold

B22: S239D/H268D/L328Y/I332E (antibody, human IgG1, kappa)
heavy: B3 heavy with F239L, S243D, I336E
light: B1 light
notes: HuAM4G7 IgG1 Fc variant
  Fold FcγRIIb: 54.1 fold

B23: S239D/H268D/L328Y (antibody, human IgG1, kappa)
heavy: B3 heavy with F239L, S243D
light: B1 light
notes: HuAM4G7 IgG1 Fc variant
  Fold FcγRIIb: 24.4 fold

B24: S239D/S267D (antibody, human IgG1, kappa)
heavy: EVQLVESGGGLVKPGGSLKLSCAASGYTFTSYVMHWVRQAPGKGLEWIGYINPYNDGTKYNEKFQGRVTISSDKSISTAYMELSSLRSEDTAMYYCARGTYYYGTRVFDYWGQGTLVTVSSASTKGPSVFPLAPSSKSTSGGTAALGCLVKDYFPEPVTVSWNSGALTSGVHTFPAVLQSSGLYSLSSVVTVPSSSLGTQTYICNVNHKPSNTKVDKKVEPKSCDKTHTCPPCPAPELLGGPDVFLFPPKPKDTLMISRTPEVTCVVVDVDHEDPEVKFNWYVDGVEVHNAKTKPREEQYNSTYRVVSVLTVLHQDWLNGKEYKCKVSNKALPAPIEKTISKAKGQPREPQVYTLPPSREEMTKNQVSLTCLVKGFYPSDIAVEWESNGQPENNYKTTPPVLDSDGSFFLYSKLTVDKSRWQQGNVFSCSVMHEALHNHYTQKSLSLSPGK
light: B1 light
notes: HuAM4G7 IgG1 Fc variant
  Fold FcγRIIb: 22.3 fold

B25: S239D/K326D/L328Y (antibody, human IgG1, kappa)
heavy: B3 heavy with F239L, S243D, D272H, K330D
light: B1 light
notes: HuAM4G7 IgG1 Fc variant
  Fold FcγRIIb: 13 fold

B26: L235Y/S267D (antibody, human IgG1, kappa)
heavy: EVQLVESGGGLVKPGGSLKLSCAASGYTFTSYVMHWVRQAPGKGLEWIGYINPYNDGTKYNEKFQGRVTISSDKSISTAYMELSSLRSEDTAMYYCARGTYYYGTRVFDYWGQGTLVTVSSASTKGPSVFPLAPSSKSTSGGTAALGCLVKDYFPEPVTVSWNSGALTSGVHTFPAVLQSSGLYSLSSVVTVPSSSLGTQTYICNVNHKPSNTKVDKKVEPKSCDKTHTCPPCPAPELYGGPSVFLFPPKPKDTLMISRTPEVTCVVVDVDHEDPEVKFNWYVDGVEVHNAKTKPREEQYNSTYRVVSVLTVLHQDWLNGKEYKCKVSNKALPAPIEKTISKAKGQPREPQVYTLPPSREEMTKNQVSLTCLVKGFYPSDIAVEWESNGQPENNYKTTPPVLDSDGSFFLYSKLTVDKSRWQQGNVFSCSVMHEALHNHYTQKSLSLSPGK
light: B1 light
notes: HuAM4G7 IgG1 Fc variant
  Fold FcγRIIb: 15.9 fold

B27: L234F/G236N (antibody, human IgG1, kappa)
heavy: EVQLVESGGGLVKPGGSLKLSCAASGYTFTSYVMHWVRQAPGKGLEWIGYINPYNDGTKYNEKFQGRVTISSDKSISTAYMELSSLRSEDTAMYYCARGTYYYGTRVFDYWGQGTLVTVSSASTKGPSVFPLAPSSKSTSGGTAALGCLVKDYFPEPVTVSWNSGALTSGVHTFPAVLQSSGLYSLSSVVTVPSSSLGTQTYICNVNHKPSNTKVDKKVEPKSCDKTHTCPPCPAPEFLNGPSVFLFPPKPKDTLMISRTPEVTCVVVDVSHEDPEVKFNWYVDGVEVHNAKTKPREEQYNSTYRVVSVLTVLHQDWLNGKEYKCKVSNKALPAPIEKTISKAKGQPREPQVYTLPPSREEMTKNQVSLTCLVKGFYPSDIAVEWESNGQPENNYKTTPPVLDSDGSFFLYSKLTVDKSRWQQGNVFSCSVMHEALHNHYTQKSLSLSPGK
light: B1 light
notes: HuAM4G7 IgG1 Fc variant
  binding result: no binding

B28: S239D/H268D/L328W/I332E (antibody, human IgG1, kappa)
heavy: B3 heavy with F239L, S243D, Y332W, I336E
light: B1 light
notes: HuAM4G7 IgG1 Fc variant
  Fold FcγRIIb: 27.8 fold

B29: S239D/H268D/L328F/I332E (antibody, human IgG1, kappa)
heavy: B3 heavy with F239L, S243D, Y332F, I336E
light: B1 light
notes: HuAM4G7 IgG1 Fc variant
  Fold FcγRIIb: 53.2 fold
